Results published in patent US20240002532A1.

Molecular target: HER2 (human epidermal growth factor receptor 2) (human) (UniProt P04626)
Experiment: cell-based or functional assay

maximal cytolysis of SKOV3 tumor cells (xCELLigence, donor T cells, E:T 1:1): 90%
Substance: CasMab250 (H/L)-based CAR with medium spacer (IgG4 hinge & CH3 domain) and CD28-CD3ζ1XX intracellular signaling domains
